Measurements as given in patent publication US20220089678A1 (CARTESIAN THERAPEUTICS, published 2022).

T1: phycoerythrin (PE)-conjugated BCMA (Recombinant Human TNFRSF17 protein, Fc/His-tagged, R-PE labeled); Creative … (human, UniProt Q02223 1-54, R-PE labeled)
T1 construct: Bought reagent; also called BCMA-PE; not shown: Fc/His tag of the bought reagent
T1 sequence: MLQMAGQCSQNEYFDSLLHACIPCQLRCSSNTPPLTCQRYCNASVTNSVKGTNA

T2: human BCMA on cells (human, UniProt Q02223 1-184)
T2 sequence: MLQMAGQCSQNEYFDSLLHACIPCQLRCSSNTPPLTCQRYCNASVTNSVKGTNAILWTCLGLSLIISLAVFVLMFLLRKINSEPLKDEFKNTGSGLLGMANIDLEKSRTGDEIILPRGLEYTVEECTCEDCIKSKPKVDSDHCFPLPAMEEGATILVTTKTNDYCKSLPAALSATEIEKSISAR


Legend:
[1] = molecular target: T1, phycoerythrin (PE)-conjugated BCMA …; experiment: flow cytometry; CAR T cells stained with BCMA-PE, 3 days after electroporation
Method: (§1) CAR T cells obtained from the above-described process were tested for viability, CAR protein expression, BCMA binding, and cytotoxicity, i.e., the ability to kill BCMA+ myeloma (tumor) cells. Viability, CAR expression, and BCMA binding were determined by flow cytometry on a GUAVA® […]® 12HT Flow cytometer (EMD Millipore). To test viability, a sample of the CAR T cells was mixed with propidium iodide and run on the flow cytometer with electronic gating on fluorescence in the near infrared channel. To test CAR protein expression and BCMA binding, a sample of the CAR T cells was incubated with 0.4 ug/mL of phycoerythrin (PE)-conjugated BCMA (Recombinant Human TNFRSF17 protein, Fc/His-tagged, R-PE labeled; Creative Biomart, Shirley, N.Y.). CAR expression was assessed on the flow cytometer with electronic gating on fluorescence in the yellow channel to detect presence or absence of emission from BCMA-PE on CAR-positive and CAR-negative cells. BCMA binding was determined by measuring the intensity of fluorescence in the yellow channel to determine the relative quantity of BCMA-PE bound to labelled CAR-positive cells. For the viability, expression, and BCMA binding assays, CD8+ T cells electroporated without mRNA (CAR-negative T Cells) were tested as a parallel control.
For each of the mRNA constructs, CAR T cells were prepared by transfection into human CD8+ cells, as described in Example 1. The CAR T cells made from each mRNA construct were then tested 3 days after electroporation for BCMA binding and tumor killing, as described in Example 1.

human BCMA on cells [2] = molecular target: T2, human BCMA on cells; experiment: cell-based or functional assay
[3] = molecular target: T1, phycoerythrin (PE)-conjugated BCMA …; experiment: flow cytometry; CAR T cells stained with BCMA-PE, 3 days after electroporation; remark: listed apart in the source
Method: as §1
Numerous CAR-encoding mRNA constructs were prepared using the mRNA construct of SEQ ID: 29 as a starting point (which encodes a CAR of sequence SEQ ID: 19 and comprises the scFv of sequence SEQ ID: 48). These constructs encoded the same or substantially the same amino acid residues in the scFv complementary-determining regions (CDRs) but varied with respect to the amino acid residues in the scFv framework regions. In making these variations, the experimenter's intent was to humanize the scFv framework regions without reducing BCMA-binding and tumor-killing properties of CAR T cells that express the CAR. For each of the mRNA constructs, CAR T cells were prepared by transfection into human CD8+ cells, substantially as described in Example 1. The CAR T cells made from each mRNA construct were then tested 3 days after electroporation for BCMA binding and/or tumor killing, as substantially described in Example 1.

human BCMA on cells [4] = molecular target: T2, human BCMA on cells; experiment: cell-based or functional assay; remark: listed apart in the source

| Binder | BCMA Binding (arbitrary units) [1] | Killing (% killed), Effector:target ratio of 1:10 (human BCMA on cells [2]) | BCMA Binding [3] | BCMA Binding (relative to SEQ ID: 54) [3] | Killing (% killed), Effector:target ratio of 1:2 (human BCMA on cells [4]) |
| --- | --- | --- | --- | --- | --- |
| CAR comprising scFv-Y32 (SEQ ID NO: 57) (other, CAR on mRNA-electroporated human CD8+ T cells; Only the scFv is identified; not shown: rest of the CAR (hinge, transmembrane, cytoplasmic domains) not specified for this construct) DIVLTQSPSSLSASVGDRATISCRASESVTILGSHLIHWYQQKPGQAPKLLIQLASNVQTGVPARFSGSGSGTDFTLTISSVEPEDVAVYYCLQSRTIPRTFGQGTKVEIKGSTSGSGKPGSGEGSTKGQIQLVQSGPELKKPGGSVKISCAASGYTFTDYSINWVRQAPGKGLEWVGWINTETREPAYAYDFRGRFTFSADTSKSTAYLQMNSLRAEDTAVYYCALDYSYAMDYWGQGTLVTVSS | 343 arbitrary units | 85% | 460 relative (SEQ ID: 48 = 100) | 124 relative to SEQ ID: 54 = 100 | 85% |
| CAR comprising scFv-12′ (SEQ ID NO: 68) (other, CAR on mRNA-electroporated human CD8+ T cells; Only the scFv is identified; not shown: rest of the CAR (hinge, transmembrane, cytoplasmic domains) not specified for this construct) DIVLTQSPSSLSASVGDRATISCRASESVTILGSHLIHWYQQKPGQAPKLLIQLASNVQTGVPARFSGSGSGTDFTLTISSVEPEDVAVYYCLQSKNFPRTFGQGTKVEIKGSTSGSGKPGSGEGSTKGQIQLVQSGPELKKPGGSVKISCAASGYTFTSYDINWVRQAPGKGLEWVGWINTETREPAYAYDFRGRFTFSADTSKSTAYLQMNSLRAEDTAVYYCALDYLYSLDFWGQGTLVTVSS | 446 arbitrary units |  |  |  | 7% |
| CAR comprising scFv-21′ (SEQ ID NO: 70) (other, CAR on mRNA-electroporated human CD8+ T cells; Only the scFv is identified; not shown: rest of the CAR (hinge, transmembrane, cytoplasmic domains) not specified for this construct) DIVLTQSPSSLSASVGDRATISCRASESVTILGSHLIHWYQQKPGQAPKLLINLASNVNTGVPARFSGSGSGTDFTLTISSVEPEDVAVYYCLQSRTIPRTFGQGTKVEIKGSTSGSGKPGSGEGSTKGQIQLVQSGPELKKPGGSVKISCAASGYTFTDYSINWVRQAPGKGLEWVGWINTETREPAYAYDFRGRFTFSADTSKSTAYLQMNSLRAEDTAVYYCALDYSYAMDYWGQGTLVTVSS | 404 arbitrary units |  |  |  | 83% |
| CAR comprising scFv-13′ (SEQ ID NO: 69) (other, CAR on mRNA-electroporated human CD8+ T cells; Only the scFv is identified; not shown: rest of the CAR (hinge, transmembrane, cytoplasmic domains) not specified for this construct) DIVLTQSPSSLSASVGDRATISCRASESVSFLGINLIHWYQQKPGQAPKLLIYLASNLETGVPARFSGSGSGTDFTLTISSVEPEDVAVYYCLQSRTLPRTFGQGTKVEIKGSTSGSGKPGSGEGSTKGQIQLVQSGPELKKPGGSVKISCAASGYTFTSYSINWVRQAPGKGLEWVGWINTETREPAYAQGFTGRFTFSADTSKSTAYLQMNSLRAEDTAVYYCALDYLYSLDFWGQGTLVTVSS | 230 arbitrary units |  |  |  | 77% |
| CAR comprising scFv-Y37 (SEQ ID NO: 60) (other, CAR on mRNA-electroporated human CD8+ T cells; Only the scFv is identified; not shown: rest of the CAR (hinge, transmembrane, cytoplasmic domains) not specified for this construct) DIVLTQSPASLAVSPGQRATITCRASESVTILGSHLIHWYQQKPGQPPKLLIQLASNVQTGVPARFSGSGSGTDFTLTISSVEPEDTANYYCLQSRTIPRTFGQGTKVEIKGSTSGSGKPGSGEGSTKGQIQLVQSGPELKKPGGSVKISCKASGYTFTDYSINWVRQAPGKGLEWVGWINTETREPAYAYDFTGRFTFSADTSKSMAYLQINSLRAEDTAVYYCALDYSYAMDYWGQGTLVTVSS | 381 arbitrary units | 83% | 382 relative (SEQ ID: 48 = 100) |  | 83% |
